The source of these data is US5405946A, “Recombinant protein S variants deficient in C4BP binding activity, compositions and therapeutic methods” (The Scripps Research Institute, priority 1992, dated 1995).

Assay [1] addresses activated protein C (APC) (Homo sapiens, UniProt P04070). Description: Activated partial thromboplastin time clotting assay, APC cofactor activity in PS- and C4BP-depleted plasma. The format is biochemical. The protocol:
(§1) An activated partial thromboplastin time clotting assay, using PS- and C4BP-depleted plasma, cephalin-kaolin reagent (Boehringer Mannhein, Indianapolis, Ind.), activated protein C (APC) and increasing amounts of recombinant PS variants was performed as described by Chang et al., Thromb. Haemost., 67:526-532 (1992). Briefly, to 50 ul PS and C4BP-depleted plasma (prepared as described by Koedam et al., J. Clin. Invest., 82:1236-1243 (1988)) was added 50 ul cephalin-kaolin reagent, 25 ul APC (Koedam et al., ibid) at 5 ug/ml and 15 to 45 ul recombinant PS variants (0-4 ug/ml) diluted in Michaelis buffer (28.5 mM sodium acetate, 28.5 mM sodium barbital and 116 mM NaCl, pH 7.35) and maintained for 3 minutes at 37C. Clotting was initiated by addition of 50 ul of 25 mM CaCl2 and the clotting time was measured in an Amelung-Coagulometer KC10.
(§2) The ability of the variants to serve as a cofactor for APC was tested in a clotting assay. The clotting assay was performed as described in Example 2D. To examine the effects of thrombin on recombinant PS variants APC cofactor activity, one ml of purified recombinant PS variants listed above and prepared in Example 1D (4-40 ug/ml) was maintained with 1/20 vol (50 ul) of thrombin-Sepharose for 1 hour at 37C. in 50 mM Tris-HCl pH 7.5 containing […]. Thrombin-Sepharose was removed by centrifugation. Supernatants containing the thrombin-treated PS were stored at -20C. until used.
(§3) The PS-dependent prolongation of the clotting time was measured in an activated partial thromboplastin time system using PS and C4BP depleted plasma, APC and cephalin-kaolin reagent as described in Example 2D. Increasing amounts of recombinant PS or the triple variant treated without or with thrombin were added. Clotting was initiated by the addition of CaCl2 and the clotting time was measured. The results are presented as the means of duplicate values.

The target in assay [2] is T1, thrombin (Homo sapiens, UniProt P00734).
T1 construct: maintained with 1/20 vol (50 ul) of thrombin-Sepharose for 1 hour at 37C
Description: APC cofactor clotting assay after thrombin-Sepharose treatment of PS variants. The format is biochemical. As to conditions: for Clotting Time After Treatment: after thrombin treatment, without protein S 72 ± 2 seconds. The protocol: as §1, §2, §3

Setting [3] is: concentration 2.38 ug/ml, without protein S 72 ± 2 seconds.
Setting [4] is: concentration 0.60 ug/ml, without protein S 72 ± 2 seconds.
[5] abbreviates: concentration 1.12 ug/ml, without protein S 72 ± 2 seconds.

Sequence of activated protein C (APC) (P04070 212-461 limits assumed): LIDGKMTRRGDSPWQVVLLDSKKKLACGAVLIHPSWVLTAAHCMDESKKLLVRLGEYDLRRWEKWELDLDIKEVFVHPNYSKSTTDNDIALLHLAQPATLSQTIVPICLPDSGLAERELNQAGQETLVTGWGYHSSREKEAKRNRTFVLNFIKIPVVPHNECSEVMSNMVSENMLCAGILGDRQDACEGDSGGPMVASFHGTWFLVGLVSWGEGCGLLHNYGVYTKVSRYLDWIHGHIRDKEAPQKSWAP
Sequence of activated protein C (APC) (P04070 43-197 limits assumed): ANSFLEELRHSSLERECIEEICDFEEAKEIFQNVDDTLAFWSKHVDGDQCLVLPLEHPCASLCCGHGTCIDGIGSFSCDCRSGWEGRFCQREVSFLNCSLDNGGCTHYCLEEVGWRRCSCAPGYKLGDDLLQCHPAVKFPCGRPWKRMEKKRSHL

As for “rPS wild-type: recombinant wild-type full length human protein S expressed in C127I cells [reference compound]”, the “Clotting Time” value worked out at 91 s in assay [1] (setting [3]) and 116 s in assay [1] (final conc. 2.4 ug/ml, basal clotting 80). For the same molecule, the “Clotting Time After Treatment” value in assay [2] (concentration 2.38 ug/ml) stood at 70 s. Also, the “APC cofactor activity after treatment with thrombin” value in assay [2] (thrombin-Sepharose 1 hour at 37C) was “significantly decreased”.

B1: R49L variant: recombinant protein S single variant in thrombin-sensitive domain, arginine 49 replaced by leucine (protein, UniProt P07225 42-676, looked up, variant R49L)
Vitamin K-dependent protein S: ANSLLEETKQGNLERECIEELCNKEEAREVFENDPETDYFYPKYLVCLLSFQTGLFTAARQSTNAYPDLRSCVNAIPDQCSPLPCNEDGYMSCKDGKASFTCTCKPGWQGEKCEFDINECKDPSNINGGCSQICDNTPGSYHCSCKNGFVMLSNKKDCKDVDECSLKPSICGTAVCKNIPGDFECECPEGYRYNLKSKSCEDIDECSENMCAQLCVNYPGGYTCYCDGKKGFKLAQDQKSCEVVSVCLPLNLDTKYELLYLAEQFAGVVLYLKFRLPEISRFSAEFDFRTYDSEGVILYAESIDHSAWLLIALRGGKIEVQLKNEHTSKITTGGDVINNGLWNMVSVEELEHSISIKIAKEAVMDINKPGPLFKPENGLLETKVYFAGFPRKVESELIKPINPRLDGCIRSWNLMKQGASGIKEIIQEKQNKHCLVTVEKGSYYPGSGIAQFHIDYNNVSSAEGWHVNVTLNIRPSTGTGVMLALVSGNNTVPFAVSLVDSTSEKSQDILLSVENTVIYRIQALSLCSDQQSHLEFRVNRNNLELSTPLKIETISHEDLQRQLAVLDKAMKAKVATYLGGLPDVPFSATPVNAFYNGCMEVNINGVQLDLDEAISKHNDIRAHSCPSVWKKTKNS
On to B1, for which, in assay [1] (setting [4]), the “Clotting Time” value came out at 80 s. Further, in assay [2] (concentration 0.60 ug/ml), the “Clotting Time After Treatment” value worked out at 72 s.

B2: R60L variant: recombinant protein S single variant in thrombin-sensitive domain, arginine 60 replaced by leucine (protein, UniProt P07225 42-676, looked up, variant R60L)
Vitamin K-dependent protein S: ANSLLEETKQGNLERECIEELCNKEEAREVFENDPETDYFYPKYLVCLRSFQTGLFTAALQSTNAYPDLRSCVNAIPDQCSPLPCNEDGYMSCKDGKASFTCTCKPGWQGEKCEFDINECKDPSNINGGCSQICDNTPGSYHCSCKNGFVMLSNKKDCKDVDECSLKPSICGTAVCKNIPGDFECECPEGYRYNLKSKSCEDIDECSENMCAQLCVNYPGGYTCYCDGKKGFKLAQDQKSCEVVSVCLPLNLDTKYELLYLAEQFAGVVLYLKFRLPEISRFSAEFDFRTYDSEGVILYAESIDHSAWLLIALRGGKIEVQLKNEHTSKITTGGDVINNGLWNMVSVEELEHSISIKIAKEAVMDINKPGPLFKPENGLLETKVYFAGFPRKVESELIKPINPRLDGCIRSWNLMKQGASGIKEIIQEKQNKHCLVTVEKGSYYPGSGIAQFHIDYNNVSSAEGWHVNVTLNIRPSTGTGVMLALVSGNNTVPFAVSLVDSTSEKSQDILLSVENTVIYRIQALSLCSDQQSHLEFRVNRNNLELSTPLKIETISHEDLQRQLAVLDKAMKAKVATYLGGLPDVPFSATPVNAFYNGCMEVNINGVQLDLDEAISKHNDIRAHSCPSVWKKTKNS
On to B2, for which the “Clotting Time” value in assay [1] (setting [3]) was 90 s. Besides, the “Clotting Time After Treatment” value in assay [2] (concentration 2.38 ug/ml) turned out to be 75 s.

B3: R49L/R60L variant: recombinant protein S double variant in thrombin-sensitive domain (protein, UniProt P07225 42-676, looked up, variant R49L R60L)
Vitamin K-dependent protein S: ANSLLEETKQGNLERECIEELCNKEEAREVFENDPETDYFYPKYLVCLLSFQTGLFTAALQSTNAYPDLRSCVNAIPDQCSPLPCNEDGYMSCKDGKASFTCTCKPGWQGEKCEFDINECKDPSNINGGCSQICDNTPGSYHCSCKNGFVMLSNKKDCKDVDECSLKPSICGTAVCKNIPGDFECECPEGYRYNLKSKSCEDIDECSENMCAQLCVNYPGGYTCYCDGKKGFKLAQDQKSCEVVSVCLPLNLDTKYELLYLAEQFAGVVLYLKFRLPEISRFSAEFDFRTYDSEGVILYAESIDHSAWLLIALRGGKIEVQLKNEHTSKITTGGDVINNGLWNMVSVEELEHSISIKIAKEAVMDINKPGPLFKPENGLLETKVYFAGFPRKVESELIKPINPRLDGCIRSWNLMKQGASGIKEIIQEKQNKHCLVTVEKGSYYPGSGIAQFHIDYNNVSSAEGWHVNVTLNIRPSTGTGVMLALVSGNNTVPFAVSLVDSTSEKSQDILLSVENTVIYRIQALSLCSDQQSHLEFRVNRNNLELSTPLKIETISHEDLQRQLAVLDKAMKAKVATYLGGLPDVPFSATPVNAFYNGCMEVNINGVQLDLDEAISKHNDIRAHSCPSVWKKTKNS
Consider B3, for which the “Clotting Time” value in assay [1] (setting [5]) was 88 s. Moreover, the “Clotting Time After Treatment” value in assay [2] (concentration 1.12 ug/ml) was determined as 80 s.

B4: R49L/R70I variant: recombinant protein S double variant in thrombin-sensitive domain (protein, UniProt P07225 42-676, looked up, variant R49L R70I)
Vitamin K-dependent protein S: ANSLLEETKQGNLERECIEELCNKEEAREVFENDPETDYFYPKYLVCLLSFQTGLFTAARQSTNAYPDLISCVNAIPDQCSPLPCNEDGYMSCKDGKASFTCTCKPGWQGEKCEFDINECKDPSNINGGCSQICDNTPGSYHCSCKNGFVMLSNKKDCKDVDECSLKPSICGTAVCKNIPGDFECECPEGYRYNLKSKSCEDIDECSENMCAQLCVNYPGGYTCYCDGKKGFKLAQDQKSCEVVSVCLPLNLDTKYELLYLAEQFAGVVLYLKFRLPEISRFSAEFDFRTYDSEGVILYAESIDHSAWLLIALRGGKIEVQLKNEHTSKITTGGDVINNGLWNMVSVEELEHSISIKIAKEAVMDINKPGPLFKPENGLLETKVYFAGFPRKVESELIKPINPRLDGCIRSWNLMKQGASGIKEIIQEKQNKHCLVTVEKGSYYPGSGIAQFHIDYNNVSSAEGWHVNVTLNIRPSTGTGVMLALVSGNNTVPFAVSLVDSTSEKSQDILLSVENTVIYRIQALSLCSDQQSHLEFRVNRNNLELSTPLKIETISHEDLQRQLAVLDKAMKAKVATYLGGLPDVPFSATPVNAFYNGCMEVNINGVQLDLDEAISKHNDIRAHSCPSVWKKTKNS
Turning to B4, in assay [1] (setting [5]), the “Clotting Time” value is 86 s. Besides, the “Clotting Time After Treatment” value in assay [2] (concentration 1.12 ug/ml) came out at 80 s.

B5: R60L/R70I variant: recombinant protein S double variant in thrombin-sensitive domain (protein, UniProt P07225 42-676, looked up, variant R60L R70I)
Vitamin K-dependent protein S: ANSLLEETKQGNLERECIEELCNKEEAREVFENDPETDYFYPKYLVCLRSFQTGLFTAALQSTNAYPDLISCVNAIPDQCSPLPCNEDGYMSCKDGKASFTCTCKPGWQGEKCEFDINECKDPSNINGGCSQICDNTPGSYHCSCKNGFVMLSNKKDCKDVDECSLKPSICGTAVCKNIPGDFECECPEGYRYNLKSKSCEDIDECSENMCAQLCVNYPGGYTCYCDGKKGFKLAQDQKSCEVVSVCLPLNLDTKYELLYLAEQFAGVVLYLKFRLPEISRFSAEFDFRTYDSEGVILYAESIDHSAWLLIALRGGKIEVQLKNEHTSKITTGGDVINNGLWNMVSVEELEHSISIKIAKEAVMDINKPGPLFKPENGLLETKVYFAGFPRKVESELIKPINPRLDGCIRSWNLMKQGASGIKEIIQEKQNKHCLVTVEKGSYYPGSGIAQFHIDYNNVSSAEGWHVNVTLNIRPSTGTGVMLALVSGNNTVPFAVSLVDSTSEKSQDILLSVENTVIYRIQALSLCSDQQSHLEFRVNRNNLELSTPLKIETISHEDLQRQLAVLDKAMKAKVATYLGGLPDVPFSATPVNAFYNGCMEVNINGVQLDLDEAISKHNDIRAHSCPSVWKKTKNS
Take B5: the “Clotting Time” value in assay [1] (setting [4]) stood at 79 s. In addition, the “Clotting Time After Treatment” value in assay [2] (concentration 0.60 ug/ml) came out at 72 s.

B6: R70I variant: recombinant protein S single variant in thrombin-sensitive domain, arginine 70 replaced by isoleucine (protein, UniProt P07225 42-676, looked up, variant R70I)
Vitamin K-dependent protein S: ANSLLEETKQGNLERECIEELCNKEEAREVFENDPETDYFYPKYLVCLRSFQTGLFTAARQSTNAYPDLISCVNAIPDQCSPLPCNEDGYMSCKDGKASFTCTCKPGWQGEKCEFDINECKDPSNINGGCSQICDNTPGSYHCSCKNGFVMLSNKKDCKDVDECSLKPSICGTAVCKNIPGDFECECPEGYRYNLKSKSCEDIDECSENMCAQLCVNYPGGYTCYCDGKKGFKLAQDQKSCEVVSVCLPLNLDTKYELLYLAEQFAGVVLYLKFRLPEISRFSAEFDFRTYDSEGVILYAESIDHSAWLLIALRGGKIEVQLKNEHTSKITTGGDVINNGLWNMVSVEELEHSISIKIAKEAVMDINKPGPLFKPENGLLETKVYFAGFPRKVESELIKPINPRLDGCIRSWNLMKQGASGIKEIIQEKQNKHCLVTVEKGSYYPGSGIAQFHIDYNNVSSAEGWHVNVTLNIRPSTGTGVMLALVSGNNTVPFAVSLVDSTSEKSQDILLSVENTVIYRIQALSLCSDQQSHLEFRVNRNNLELSTPLKIETISHEDLQRQLAVLDKAMKAKVATYLGGLPDVPFSATPVNAFYNGCMEVNINGVQLDLDEAISKHNDIRAHSCPSVWKKTKNS
For B6, in assay [1] (setting [4]), the “Clotting Time” value was determined as 79 s. In addition, the “Clotting Time After Treatment” value in assay [2] (concentration 0.60 ug/ml) came out at 75 s.
